B1: CBL peptide 540-555 (E3 ubiquitin-protein ligase CBL), 16-mer library wild type / YES SH3 (YES1 SH3 domain, residues 90-152) (parent complex)
chain 1: RDLPPPPPPDRPYSVG
chain 2: not shown

Variants of: B1
Assay: proteomic peptide phage display deep mutational scan (ProP-PD DMS): M13 P8 16-mer library selected against immobilised GST-tagged bait for four days (rounds), NGS of the eluted pools per day and pseudo-replica; bait immobilised on MaxiSorp plates (10 µg), library pre-cleared on GST, 2 h binding at 4 °C, five washes; one round per day, days 1-4; value from days 2 and 3

Variant | screen value
chain 1 R11Q | 0.00199 average fractional NGS count over selection days 2 and 3 (reads of this peptide / all reads for the bait, averaged over …
chain 1 R11I | 0.000246 average fractional NGS count over selection days 2 and 3 (reads of this peptide / all reads for the bait, averaged over …
chain 1 P9K | 0.00297 average fractional NGS count over selection days 2 and 3 (reads of this peptide / all reads for the bait, averaged over …
chain 1 P9V | 0.00298 average fractional NGS count over selection days 2 and 3 (reads of this peptide / all reads for the bait, averaged over …
chain 1 P9T | 0.000876 average fractional NGS count over selection days 2 and 3 (reads of this peptide / all reads for the bait, averaged over …
chain 1 P9F | 0.000295 average fractional NGS count over selection days 2 and 3 (reads of this peptide / all reads for the bait, averaged over …
chain 1 P9I | 0.000523 average fractional NGS count over selection days 2 and 3 (reads of this peptide / all reads for the bait, averaged over …
chain 1 P9G | 0.00146 average fractional NGS count over selection days 2 and 3 (reads of this peptide / all reads for the bait, averaged over …
chain 1 P9E | 0.000429 average fractional NGS count over selection days 2 and 3 (reads of this peptide / all reads for the bait, averaged over …
chain 1 S14E | 0.0212 average fractional NGS count over selection days 2 and 3 (reads of this peptide / all reads for the bait, averaged over …
chain 1 S14P | 0.00266 average fractional NGS count over selection days 2 and 3 (reads of this peptide / all reads for the bait, averaged over …
chain 1 S14G | 0.00254 average fractional NGS count over selection days 2 and 3 (reads of this peptide / all reads for the bait, averaged over …
chain 1 S14V | 7.3e-05 average fractional NGS count over selection days 2 and 3 (reads of this peptide / all reads for the bait, averaged over …
chain 1 V15F | 0.00636 average fractional NGS count over selection days 2 and 3 (reads of this peptide / all reads for the bait, averaged over …
chain 1 V15Y | 0.00192 average fractional NGS count over selection days 2 and 3 (reads of this peptide / all reads for the bait, averaged over …
chain 1 V15R | 7.8e-05 average fractional NGS count over selection days 2 and 3 (reads of this peptide / all reads for the bait, averaged over …
chain 1 D10Y | 0.000449 average fractional NGS count over selection days 2 and 3 (reads of this peptide / all reads for the bait, averaged over …
chain 1 D10T | 0.00033 average fractional NGS count over selection days 2 and 3 (reads of this peptide / all reads for the bait, averaged over …
chain 1 D10S | 0.000232 average fractional NGS count over selection days 2 and 3 (reads of this peptide / all reads for the bait, averaged over …
chain 1 D10G | 0.00202 average fractional NGS count over selection days 2 and 3 (reads of this peptide / all reads for the bait, averaged over …
chain 1 D10L | 0.00104 average fractional NGS count over selection days 2 and 3 (reads of this peptide / all reads for the bait, averaged over …
chain 1 L3V | 0.00179 average fractional NGS count over selection days 2 and 3 (reads of this peptide / all reads for the bait, averaged over …

Variant | screen value
chain 1 L3N | 7.55e-05 average fractional NGS count over selection days 2 and 3 (reads of this peptide / all reads for the bait, averaged over …
chain 1 L3G | 7.18e-05 average fractional NGS count over selection days 2 and 3 (reads of this peptide / all reads for the bait, averaged over …
chain 1 P7D | 0.00038 average fractional NGS count over selection days 2 and 3 (reads of this peptide / all reads for the bait, averaged over …
chain 1 P7V | 0.00515 average fractional NGS count over selection days 2 and 3 (reads of this peptide / all reads for the bait, averaged over …
chain 1 D2M | 0.0201 average fractional NGS count over selection days 2 and 3 (reads of this peptide / all reads for the bait, averaged over …
chain 1 D2V | 0.00212 average fractional NGS count over selection days 2 and 3 (reads of this peptide / all reads for the bait, averaged over …
chain 1 D2P | 0.00891 average fractional NGS count over selection days 2 and 3 (reads of this peptide / all reads for the bait, averaged over …
chain 1 D2G | 0.00344 average fractional NGS count over selection days 2 and 3 (reads of this peptide / all reads for the bait, averaged over …
chain 1 D2R | 0.000105 average fractional NGS count over selection days 2 and 3 (reads of this peptide / all reads for the bait, averaged over …
chain 1 D2A | 0.00577 average fractional NGS count over selection days 2 and 3 (reads of this peptide / all reads for the bait, averaged over …
chain 1 D2Y | 0.00341 average fractional NGS count over selection days 2 and 3 (reads of this peptide / all reads for the bait, averaged over …
chain 1 D2F | 0.000357 average fractional NGS count over selection days 2 and 3 (reads of this peptide / all reads for the bait, averaged over …
chain 1 D2N | 0.00453 average fractional NGS count over selection days 2 and 3 (reads of this peptide / all reads for the bait, averaged over …
chain 1 D2K | 0.000177 average fractional NGS count over selection days 2 and 3 (reads of this peptide / all reads for the bait, averaged over …
chain 1 D2S | 0.00111 average fractional NGS count over selection days 2 and 3 (reads of this peptide / all reads for the bait, averaged over …
chain 1 P6R | 0.00111 average fractional NGS count over selection days 2 and 3 (reads of this peptide / all reads for the bait, averaged over …
chain 1 P6L | 0.000189 average fractional NGS count over selection days 2 and 3 (reads of this peptide / all reads for the bait, averaged over …
chain 1 P6K | 0.00059 average fractional NGS count over selection days 2 and 3 (reads of this peptide / all reads for the bait, averaged over …
chain 1 P5V | 0.0116 average fractional NGS count over selection days 2 and 3 (reads of this peptide / all reads for the bait, averaged over …
chain 1 P5D | 0.00109 average fractional NGS count over selection days 2 and 3 (reads of this peptide / all reads for the bait, averaged over …
chain 1 P5N | 0.00347 average fractional NGS count over selection days 2 and 3 (reads of this peptide / all reads for the bait, averaged over …
chain 1 Y13Q | 0.00091 average fractional NGS count over selection days 2 and 3 (reads of this peptide / all reads for the bait, averaged over …

Variant | screen value
chain 1 Y13N | 0.00025 average fractional NGS count over selection days 2 and 3 (reads of this peptide / all reads for the bait, averaged over …
chain 1 Y13S | 0.00123 average fractional NGS count over selection days 2 and 3 (reads of this peptide / all reads for the bait, averaged over …
chain 1 Y13K | 0.000696 average fractional NGS count over selection days 2 and 3 (reads of this peptide / all reads for the bait, averaged over …
chain 1 Y13H | 0.000183 average fractional NGS count over selection days 2 and 3 (reads of this peptide / all reads for the bait, averaged over …
chain 1 P12W | 0.00363 average fractional NGS count over selection days 2 and 3 (reads of this peptide / all reads for the bait, averaged over …
chain 1 P12V | 0.002 average fractional NGS count over selection days 2 and 3 (reads of this peptide / all reads for the bait, averaged over …
chain 1 P12S | 0.00406 average fractional NGS count over selection days 2 and 3 (reads of this peptide / all reads for the bait, averaged over …
chain 1 P12L | 0.0025 average fractional NGS count over selection days 2 and 3 (reads of this peptide / all reads for the bait, averaged over …
chain 1 P12K | 0.00165 average fractional NGS count over selection days 2 and 3 (reads of this peptide / all reads for the bait, averaged over …
chain 1 P12N | 0.000558 average fractional NGS count over selection days 2 and 3 (reads of this peptide / all reads for the bait, averaged over …
chain 1 P12G | 0.000184 average fractional NGS count over selection days 2 and 3 (reads of this peptide / all reads for the bait, averaged over …
chain 1 P12M | 0.0175 average fractional NGS count over selection days 2 and 3 (reads of this peptide / all reads for the bait, averaged over …
chain 1 P12D | 0.00117 average fractional NGS count over selection days 2 and 3 (reads of this peptide / all reads for the bait, averaged over …
chain 1 P8D | 0.000795 average fractional NGS count over selection days 2 and 3 (reads of this peptide / all reads for the bait, averaged over …
chain 1 P8T | 0.0233 average fractional NGS count over selection days 2 and 3 (reads of this peptide / all reads for the bait, averaged over …
chain 1 P8G | 0.000141 average fractional NGS count over selection days 2 and 3 (reads of this peptide / all reads for the bait, averaged over …
chain 1 P4V | 0.000427 average fractional NGS count over selection days 2 and 3 (reads of this peptide / all reads for the bait, averaged over …
chain 1 P4A | 0.000327 average fractional NGS count over selection days 2 and 3 (reads of this peptide / all reads for the bait, averaged over …
chain 1 P4F | 9.76e-05 average fractional NGS count over selection days 2 and 3 (reads of this peptide / all reads for the bait, averaged over …
chain 1 R1V | 0.000334 average fractional NGS count over selection days 2 and 3 (reads of this peptide / all reads for the bait, averaged over …
